According to the supplement of paper PMC10567573:
± gives the standard deviation.

Assay: protein stability index of a GFP-peptide fusion (GPS, HEK-293T) (PSI 1-6); higher = more stable
[1] = treatment: DMSO, c terminus: a fixed tail appended
[2] = treatment: MLN4924 1 uM, 8 h, c terminus: a fixed tail appended
[3] = treatment: DMSO, c terminus: native
[4] = treatment: MLN4924 1 uM, 8 h, c terminus: native
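Note: 24-mer peptide tiles fused after GFP, lentivirally expressed, FACS-sorted into six equal bins by GFP/DsRed ratio, decoded by Illumina sequencing, PSI is the read-weighted mean bin number.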

Row | Sequence | protein stability index [1] | protein stability index [2] | protein stability index [3] | protein stability index [4]
1 | DAIGEGKVTLRIRNVRFSDEGGFT [MOG] | 2.88 ± 0.35 | 2.84 ± 0.44 |  | 
2 | NAANRTGYVPSNYVERKNSLKKGS [NCK2] | 4.33 ± 0.3 | 4.45 ± 0.18 |  | 
3 | FHVDSAAEYYRLHLEGYHGTAGDS [TNXB] | 2.81 ± 0.27 | 3.17 ± 0.31 |  | 
4 | VLLKKDVDAAYANKVELQAKVESM [KRT71] | 3.63 ± 0.36 | 3.65 ± 0.36 |  | 
5 | HQRIHTGEKPYECVQCGKSYSQSS [ZNF24] | 3.79 ± 0.4 | 3.92 ± 0.28 |  | 
6 | TVCDPARSCAIVEDDGLQSAFTAA [ADAMTS4] | 3.6 ± 0.85 | 4.16 ± 0.47 |  | 
7 | TTFSTTSGYMEGYYTFHFLYFKDK [FBXO3] | 2.97 ± 0.74 | 2.41 ± 0.41 |  | 
8 | TKMWHPNIYETGDVCISILHPPVD [CDC34] | 2.23 ± 0.2 | 2.12 ± 0.37 |  | 
9 | STLLPLAPSNSTSLNSTFGSTNLT [NFE2L1] | 3.64 ± 0.19 | 3.86 ± 0.16 |  | 
10 | TNYNNVCRKFPRDMKAMSPENQEY [RHOBTB2] | 3.8 ± 0.12 | 4.13 ± 0.12 |  | 
11 | DTSGFPDLSDNRNEDPLVLLAWRC [FBXO33] | 2.67 ± 0.23 | 3 ± 0.46 |  | 
12 | AAHLALLLLCGTISLRVYRKVLQA [RTN2] | 2.49 ± 0.33 | 2.51 ± 0.73 |  | 
13 | RRKREVLVEDMVSQEEAQGLPSSE [ZNF24] | 5.31 ± 0.2 | 5.43 ± 0.15 |  | 
14 | YPTTLGKDRECQSQSLALKEQNNL [ZNF8] | 4.39 ± 0.16 | 4.52 ± 0.19 |  | 
15 | PADCKRKEEAGAPGGGAGMAAGFP [CEBPB] | 5.12 ± 0.35 | 5.29 ± 0.098 |  | 
16 | GWILIDRCGKHFGTILNYLRDGAV [KCTD10] | 3.08 ± 0.41 | 2.38 ± 0.52 |  | 
17 | DLETHRLPCTSRCPRPCRESAFKL [SCNN1D] | 2.41 ± 0.21 | 2.44 ± 0.063 |  | 
18 | SLHHTSECTQMDHLGCMHYTVRAP [ALDH8A1] | 3.04 ± 0.13 | 3.06 ± 0.25 |  | 
19 | LFFIDGSTPSDNIVRRFLNICENT [CDC14A] | 2.37 ± 0.17 | 2.22 ± 0.24 |  | 
20 | KHWREWGSHAQTSQIQSIRRIQQ [CRYBA1] |  |  | 3.25 ± 0.69 | 3.19 ± 0.46
21 | KKRYEEEINKRTAAENEFVLLKKD [KRT71] | 5.07 ± 0.2 | 4.99 ± 0.27 |  | 
22 | PPDSKEGIVVESNHDSHMAKERAH [PDZK1] | 5.55 ± 0.36 | 5.55 ± 0.23 |  | 

Row | Sequence | protein stability index [1] | protein stability index [2] | protein stability index [3] | protein stability index [4]
23 | TPKDKRVSNTPLRTVDGSPMMKAA [PALM] | 4.33 ± 0.3 | 4.39 ± 0.24 |  | 
24 | RELNLPFGGMKSSGIGREGAKDSY [ALDH8A1] | 4.08 ± 0.12 | 4.16 ± 0.37 |  | 
25 | PFDLEQQWQDLMSIMEMQAMEVNT [NFE2L1] | 3.87 ± 0.17 | 4.03 ± 0.28 |  | 
26 | LRMMVENIMNKEAFMNQEITKAFH [RHOBTB1] | 2.28 ± 0.5 | 2.2 ± 0.24 |  | 
27 | MEEMSGESVVSSAVPAAATRTTSF [KCTD10] | 4.76 ± 0.28 | 4.82 ± 0.49 |  | 
28 | LLISSCDWMAAMFGGPFVESSTRE [RHOBTB2] | 2.68 ± 0.52 | 2.37 ± 0.48 |  | 
29 | PPLRVIVKDALFCSCLSDILRFIY [RHOBTB3] | 2.78 ± 0.16 | 2.84 ± 0.27 |  | 
30 | MEACMDGHVEVARLLLDSGAQVNM [ANKRD17] | 2.98 ± 0.32 | 3.06 ± 0.28 |  | 
31 | TRNVQSVSIIDTELKVKDSQPIDL [TRIP13] | 4.32 ± 0.16 | 4.55 ± 0.19 |  | 
32 | RAKLDELEGALHQAKEELARMLRE [KRT71] | 2.97 ± 0.36 | 3.7 ± 0.33 |  | 
33 | SSSTMSKSEYMEIEEDMNNSIAHY [KCNA1] | 4.56 ± 0.33 | 4.5 ± 0.11 |  | 
34 | KDLTEYLKVRSHDPEEAIRHDVIV [PDS5B] | 3.26 ± 0.38 | 3.39 ± 0.14 |  | 
35 | LRCLDRDEPSKPTLALEYTYGRRA [DYNC2LI1] | 3.45 ± 0.14 | 3.41 ± 0.32 |  | 
36 | QLQFLIRYHRFISFALYLAGFCMF [CDS1] | 2.07 ± 0.062 | 2.32 ± 0.52 |  | 
37 | HVLLPVALEFQPQLVLVAAGFDAL [HDAC6] | 3.25 ± 0.43 | 2.78 ± 0.43 |  | 
38 | HGQAGQRQDPRPHGPQLPTGIEGN [ZBED2] | 4.91 ± 0.13 | 5.11 ± 0.15 |  | 
39 | PSLLELAWEKLLAAFPNLANLSRT [KLHDC10] | 2.56 ± 0.21 | 2.55 ± 0.24 |  | 
40 | TSEDLRLQCDAVNLAFGRRCEELE [TEKT4] | 4.51 ± 0.32 | 4.71 ± 0.29 |  | 
41 | LIHQHEKVIYLDDDVIVQGDIQEL [GLT8D2] | 3.6 ± 0.26 | 3.59 ± 0.22 |  | 
42 | KQPLRKYVTPSDFDQLKQFLTFDK [EFHC1] | 2.94 ± 0.18 | 3.02 ± 0.17 |  | 
43 | LGLTQNPEGQKVLFVTFLLIYMVT [OR4A15] | 2.75 ± 0.66 | 3.33 ± 1.1 |  | 
44 | YLPKNTHPFLYLSLEISPQNVDVN [MLH1] | 3.23 ± 1.1 | 2.09 ± 0.3 |  | 

Row | Sequence | protein stability index [1] | protein stability index [2] | protein stability index [3] | protein stability index [4]
45 | YSLTTSSTHKSSLCKVEIVCPPQS [RAB40A] | 2.64 ± 0.19 | 2.64 ± 0.12 |  | 
46 | QSILLNTRLQDCYVDSPALTNIWM [C22orf31] | 2.24 ± 0.24 | 2.1 ± 0.36 |  | 
47 | TEDTPKVNADIEKVNQNQAKRCTV [NSDHL] | 5.42 ± 0.23 | 5.38 ± 0.21 |  | 
48 | EKFSSSLHELSSRVEASHLTTSQE [FBF1] | 4.99 ± 0.19 | 5.01 ± 0.11 |  | 
49 | LWVPQPPPRTIKRTRRRLSRNRDP [PWWP2B] | 3.44 ± 0.35 | 3.82 ± 0.33 |  | 
50 | LLASVPSNPNGNGGFMGYSAENIP [CRY1] | 3.52 ± 0.45 | 3.41 ± 0.23 |  | 
51 | FLRQKVLSLPLPDPLKYYLLYYRE [PCMTD2] | 2.24 ± 0.34 | 2.26 ± 0.31 |  | 
52 | NQIMPKAGLLIIVLAIIAREGDCA [MAGEA3] | 3.02 ± 0.55 | 3.02 ± 0.76 |  | 
53 | PPQGGCGGGGCDRYEPLPPSLPAA [KCNA3] | 4.53 ± 0.16 | 4.7 ± 0.23 |  | 
54 | DGVPHLILIASRDIAAGEELLYDY [KMT5A] | 1.98 ± 0.31 | 2.13 ± 0.099 |  | 
55 | LPKEASDGTGASQEPPTTDSQEAQ [TOR1AIP2] | 5.65 ± 0.29 | 5.54 ± 0.2 |  | 
56 | AGLAELGHRLAQKLQGLENWGQDP [PBXIP1] | 2.79 ± 0.17 | 2.85 ± 0.33 |  | 
57 | TEEELRRIQTQKEQAKENENGELQ [ZC2HC1C] | 5.68 ± 0.23 | 5.54 ± 0.14 |  | 
58 | MGQCRSANAEDAQEFSDVERAIET [S100A14] | 4.99 ± 0.32 | 5.15 ± 0.2 |  | 
59 | SNLLSRFTRNEFNLESKSTIGVEF [RAB11A] | 2.36 ± 0.31 | 2.72 ± 0.49 |  | 
60 | LFEEEDHVKKLQQKVATLEKRNRQ [CCDC3] | 4.46 ± 0.29 | 4.68 ± 0.23 |  | 
61 | VIDLFDEQGLSALHLAAQGRHAQT [RIPK4] | 3.05 ± 0.35 | 2.87 ± 0.14 |  | 
62 | NSDDSYTCECLEGFRLAEDGKRCR [MATN2] | 3.54 ± 0.34 | 4.12 ± 0.67 |  | 
63 | EIPIHGNGEARQLPEDDGLEQDLQ [ARFIP2] | 5.04 ± 0.36 | 5.28 ± 0.12 |  | 
64 | VPQPARMPYISDKHPRQTLEVINL [KLHL20] | 2.88 ± 0.2 | 3.2 ± 0.31 |  | 
65 | ELGEEAMEKFREDEGFIKEEERPL [KCNA1] | 5.6 ± 0.31 | 5.63 ± 0.2 |  | 
66 | VSSLISEKTNGATPLLMAARYGHL [FEM1C] | 2.28 ± 0.17 | 2.52 ± 0.28 |  | 

Row | Sequence | protein stability index [1] | protein stability index [2] | protein stability index [3] | protein stability index [4]
67 | FDLERENACATKEQKNHTFPRLNR [PLD5] | 4.55 ± 0.37 | 4.75 ± 0.28 |  | 
68 | GEEPVPHQQVEEALSFTLLGSAPL [NEK8] | 4.33 ± 0.22 | 4.32 ± 0.29 |  | 
69 | FSPNSPQFNVSGPGLLEEDNQWMT [NECAB1] | 3.23 ± 0.34 | 3.58 ± 0.3 |  | 
70 | IETYGPHVPELEMLGRLGYLNHVR [MNAT1] | 2.4 ± 0.1 | 2.62 ± 0.19 |  | 
71 | FLSSEKQICGTHRQTKKMFCDMDK [TRIM43] | 3.18 ± 0.33 | 3.4 ± 0.19 |  | 
72 | NHEQEVNTLRCQLGDRLNVEVDAA [KRT33B] | 4.94 ± 0.11 | 5.16 ± 0.22 |  | 
73 | KYNSARADFEQKMLDSALRFQAME [FCHO1] | 3.5 ± 0.074 | 3.48 ± 0.27 |  | 
74 | YDVAMNRAKDLVELDPEVEGTKPS [GOLPH3L] | 5.54 ± 0.2 | 5.603 ± 0.052 |  | 
75 | HTKPSQAPAVEVAPAGASYNPSFE [NOP53] | 4.86 ± 0.36 | 4.95 ± 0.19 |  | 
76 | IRKKLKDSGDVSNVIEKVKCILKT [RHOBTB3] | 3.1 ± 0.51 | 2.72 ± 0.94 |  | 
77 | IIYMAILLTHRCLRDEHRCASKYG [DHCR7] | 2.83 ± 0.75 | 2.75 ± 0.81 |  | 
78 | KTSQLSYYYMGFYIHSCPKMKYKG [ATE1] | 2.47 ± 1.2 | 2.25 ± 0.66 |  | 
79 | SGAGHGSGSGSGPGCGSVPGSGSG [SPAG8] | 5.03 ± 0.17 | 4.96 ± 0.4 |  | 
80 | GQSDFRPKNGRHAWIWHDCHRHYH [LOXL2] | 2.54 ± 0.29 | 3.03 ± 0.45 |  | 
81 | EWENNRESLIVFMEQVHRGIKGLV [CPXM2] | 2.27 ± 0.56 | 2.07 ± 0.37 |  | 
82 | GVVMKVRIPTCHDKPGTTQIVQLT [DENND6A] | 2.02 ± 0.19 | 2.15 ± 0.4 |  | 
83 | QQCVDKESSLGSESEEEEEFYDAD [SLC22A15] | 5.52 ± 0.45 | 5.33 ± 0.33 |  | 
84 | TQDPSQPNSTKNQSLPKASPVTTS [LCOR] | 5.21 ± 0.19 | 5.12 ± 0.23 |  | 
85 | EEEVFPLAMNYLDRFLAGVPTPKS [CCND2] | 3.35 ± 0.43 | 3.55 ± 0.25 |  | 
86 | SSNRIRHLRTHTGERPYKCSECGE [ZNF263] | 4.28 ± 0.089 | 4.44 ± 0.24 |  | 
87 | CGGSGGGGGGGGGGGGCSSGSSYC [LURAP1L] | 3.28 ± 0.46 | 3.22 ± 0.22 |  | 
88 | CATTNASGNSCGPCGTSQKGCCN [KRT34] |  |  | 3.78 ± 0.17 | 3.66 ± 0.31
